Molecular target: PDGF-AB (A-chain/B-chain heterodimer) (Homo sapiens) (UniProt P04085+P01127)
Assay: filter

Chain of PDGF-AB (A-chain/B-chain heterodimer) (Homo sapiens) (P01127 82-190, chain 2 of 2, other chains not shown): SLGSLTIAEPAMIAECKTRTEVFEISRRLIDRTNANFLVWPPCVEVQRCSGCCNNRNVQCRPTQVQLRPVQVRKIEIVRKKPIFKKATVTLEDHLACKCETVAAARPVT

Question: Which Kd (after 12 rounds, apparent Kd) does the source give for “ATCCGCCTGATTAGCGATACTNNNNNNNNNNNNNNNNNNNNNNNNNNNNNNNNNNNNNNNNACTTGAGCAAAATCACCTGCAGGGG [round 12 affinity-enriched ssDNA pool]” here?
Answer: 0.05 nM

Question: For “GGGAGACAAGAAUAACGCUCAANNNNNNNNNNNNNNNNNNNNNNNNNNNNNNNNNNNNNNNNNNNNNNNNNNUUCGACAGGAGGCUCACAACAGGC [starting random 2'-F-pyrimidine RNA pool]”, which Kd (2'-F all C,U, random 2'-F-pyrimidine RNA, method inferred) is on record?
Answer: 35 nM

Question: For “ATCCGCCTGATTAGCGATACTNNNNNNNNNNNNNNNNNNNNNNNNNNNNNNNNNNNNNNNNACTTGAGCAAAATCACCTGCAGGGG [starting random ssDNA pool]”, which binding signal (fold lower affinity than round 12 pool) is on record?
Answer: 700

Source: patent US20030036642
